Experimental data as given in the supplement of paper PMC10567573.

B1: C10orf62 (parent)
chain: RALEEVEMKLQKNFLTQRENTIAG

Variants of: B1
Assay: protein stability index of a GFP-peptide fusion (GPS, HEK-293T) (PSI 1-6); higher = more stable
Conditions: c terminus: a fixed tail appended
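Note: lentivirally expressed fusions sorted by FACS into six bins by GFP to DsRed ratio, PSI derived from sequencing read proportions per bin multiplied by bin number.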

Protein stability index: each site, then its substitutions
F14: A 4.72, V 3.97, D 4.66, W 3.61, P 4.66, Q 4.45, K 4.11, E 4.61, T 4.11, M 3.82, H 4.47, I 3.86, Y 3.69, G 4.11, S 4.37, R 4.33, C 4.29, L 4.64, N 4.49
K12: V 2.31, I 2.15, C 3.3, F 2, L 2.67, D 4.03, Y 2.3, P 4.14, G 3.77, S 2.77, N 4.44, A 3.77, W 1.94, R 3.31, Q 3.72, T 4.2, M 2.86, H 3.43, E 4.05
T16: C 3.24, D 4.09, F 3.26, M 3.23, G 4.06, P 3.09, H 3.44, K 3.54, R 2.81, A 2.98, Y 2.74, I 3.06, E 3.91, L 2.79, Q 3.45, N 2.83, W 2.97, S 3.64, V 3.16
N13: M 3.02, C 3.23, S 3.52, I 1.76, F 2.23, Y 2.62, A 2.58, Q 3.4, P 3.96, W 1.36, H 2.72, R 3.42, D 3.89, V 3, K 3.3, L 2.86, E 3.92, T 3.31, G 3.15
A23: H 3.19, Y 2.91, W 2.07, E 4.28, D 4.19, G 3.41, M 3.05, T 3.67, F 2.66, V 3.44, N 3.2, S 3.42, R 3.51, P 3.93, Q 3.64, C 3.36, I 3.02, L 3.02, K 4.31
M8: Y 3.6, T 4.23, N 3.75, L 3.3, V 3.35, Q 4.12, R 3.38, A 4.09, E 4.92, S 4.08, H 4.23, I 3.26, F 3.65, K 2.63, W 2.81, P 3.94, C 3.58, D 4.6, G 4.64
G24: A 3.4, C 3.23
V6: W 3.76, T 3.73, S 4.27, P 4.17, L 3.52, K 4.43, Y 4.03, I 2.52, H 4.58, M 3.23, N 4.33, R 4.13, Q 3.93
E19: Q 2.84, I 2.04, A 3.82, K 3.53, N 3.2, W 2.05, G 3.31, T 2.92, M 2.65, R 3.12, L 2.04, F 1.86, C 2.33, Y 1.81, S 3.37, D 3.78, V 2.3, H 3.13, P 2.85
L15: P 3.89, C 3.44, W 2.63, E 4.3, R 3.94, H 3.85, D 4.69, V 3.77, A 3.92, G 3.9, Q 4.84, M 3.62, I 3.71, T 3.66, N 3.99, K 4.21, S 4.38, Y 3.71
Q11: M 2.64, K 3.31, F 2.44, C 3.52, G 3.63, R 3.71, H 2.94, T 3.73, E 4.28, I 2.13, L 2.28, Y 2.78, D 4.43, S 3.48, P 3.9, W 1.98, N 3.51, A 3.31, V 2.82
I22: W 2.38, C 3.92, D 4.11, Q 4.09, N 3.98, R 3.15, G 4.34, F 2.68, A 4.15, T 3.89, S 3.88, Y 3.38, H 3.8, V 3.59, P 3.38, M 3.54, L 3.21, E 4.75
N20: Y 2.64, K 3.75, C 3.07, T 3.7, H 2.85, Q 3.81, G 3.6, S 3.7, V 3.35, M 3.18, W 2.03, L 2.45, P 3.73, R 3.29, I 2.61, A 3.24, E 4.17, D 3.96, F 2.52
T21: G 3.23, K 3.51, R 3.2, Q 3.85, S 4.06, F 2.86, V 3.36, D 3.92, E 4.16, N 3.61, I 3.34, L 3.2, A 3.56, H 3.69, Y 2.69, C 3.73, M 3.27, W 2.93, P 3.7
E7: D 3.69, I 3.36, Y 2.38, T 2.6, M 1.33, A 2.02, H 2.17, Q 3.35, V 1.27, G 2.84, P 3.98, C 1.8, S 2.97, F 2.17, K 1.96, R 2.29, N 3.61
Q17: F 2.13, T 3.2, D 4.13, P 3.69, M 3.56, R 2.74, Y 2.48, S 3.85, L 3.03, I 2.89, A 3.42, H 3.31, G 3.73, C 3.21, N 3.89, V 3.06, W 2.92, K 3.5, E 3.96
R18: L 2.08, D 4.59, G 3.73, H 3.96, Q 3.85, A 3.19, C 2.91, W 2.47, Y 2.64, K 3.74, E 4.29, T 3.46, V 2.35, S 4.18, N 4.05, I 3.09, F 2.53, P 3.72, M 3.12
L10: D 4.56, A 4.13, I 3.5, H 4, C 3.58, V 4.04, K 4.35, S 4.66, W 2.88, Q 3.22, R 3.4, F 3.37, Y 3.67, E 5.17, P 4.4, G 4.29, T 4.4, N 4.25, M 3.75
K9: F 2.24, Q 3.13, R 2.31, D 4.13, S 3.06, Y 1.67, T 3.4, H 2.93, E 3.9, W 1.4, V 2.55, M 2.79, G 3.75, L 1.73, N 2.98, I 2.08, P 3.51, A 3.09, C 2.41
